The record followed here is publication doi:10.1101/483925 (bioRxiv, 2018).

Sequences and labels used below:
B1: 14-3-3n (At3g02520; GRF7) (natural protein)
chain: MSSSREENVYLAKLAEQAERYEEMVEFMEKVAKTVDTDELTVEERNLLSVAYKNVIGARRASWRIISSIEQKEESRGNDDHVSIIKDYRGKIETELSKICDGILNLLDSHLVPTASLAESKVFYLKMKGDYHRYLAEFKTGAERKEAAESTLVAYKSAQDIALADLAPTHPIRLGLALNFSVFYYEILNSPDRACSLAKQAFDEAISELDTLGEESYKDSTLIMQLLRDNLTLWNSDINDEAGGDEIKEASKHEPEEGKPAETGQ

Assay [1] deals with T1, FD, full-length, phosphomimic variant T282E (Arabidopsis thaliana, UniProt Q84JK2 1-285, T282E).
T1 sequence: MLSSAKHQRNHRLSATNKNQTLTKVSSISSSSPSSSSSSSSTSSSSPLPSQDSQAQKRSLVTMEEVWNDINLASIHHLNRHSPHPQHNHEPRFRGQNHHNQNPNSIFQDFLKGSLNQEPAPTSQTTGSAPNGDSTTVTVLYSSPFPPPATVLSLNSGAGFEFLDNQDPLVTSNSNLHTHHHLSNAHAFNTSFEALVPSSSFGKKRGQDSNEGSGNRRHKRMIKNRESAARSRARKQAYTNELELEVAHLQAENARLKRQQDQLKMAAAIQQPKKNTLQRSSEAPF
Kind of assay: native gel or EMSA.

Assay [2] addresses B1. Kind of assay: native gel or EMSA. In general terms: Mobility shift assays separate free from complexed probe on a gel.

With B1, in assay [1], the binding result is “binds”.

B2: FLOWERING LOCUS T (FT) (natural protein)
chain: not shown
Regarding B2, the binding result in assay [2] is listed as “binds”.

B3: FD-C_T282E, phosphomimic variant of the C-terminal domain of FD (amino acids 203-285) (domain or fragment)
chain: KKRGQDSNEGSGNRRHKRMIKNRESAARSRARKQAYTNELELEVAHLQAENARLKRQQDQLKMAAAIQQPKKNTLQRSSEAPF
Consider B3, for which the binding result in assay [2] is “binds”.

B4: TERMINAL FLOWER 1 (TFL1) (natural protein)
chain: not shown
Consider B4, for which the binding result in assay [2] is recorded as “binds”.
